According to patent US20060263381A1 (INSTITUT GUSTAVE ROUSSY, published 2006):
Like-named read-outs stand apart in the source and are kept apart here.

B1: p248G9 (YLEYRQVPG) (peptide)
peptide: YLEYRQVPG
notes: Native peptide of MAGE-A2, -A3, -A4, -A6, -A10, -A12
B2: p248V9 (YLEYRQVPV) (peptide)
peptide: YLEYRQVPV
notes: Variant of p248G9 and p248D9 with valine at P9
B3: p174 (CLGLSYDGLL) (peptide)
peptide: CLGLSYDGLL
notes: Native peptide of MAGE-A1, -A2, -A3, -A4, -A6, -A12; It is named by the position of its first residue in MAGE-A1
B4: p174Y1V10 (YLGLSYDGLV) (peptide)
peptide: YLGLSYDGLV
notes: Variant of p174 with tyrosine at P1 and valine at P10
B5: p911Y1V9 (YVWELMTFGV) (peptide)
peptide: YVWELMTFGV
notes: It is a 10-mer, although the label says V9

Assays:
[1] = target: T1, HLA-A*0201 molecule (human); experiment: T2 cell HLA-A*0201 stabilisation, flow cytometry with BB7.2
T1 construct: MHC class I molecule on T2 cells, to which the test peptides are added from outside
Method: (§1) The cells are then analyzed by flow cytometry. […] The mean RA for each peptide is determined from at least three independent experiments. In all the experiments, 20& of the maximum fluorescence was obtained for 1 to 3 μM of the reference peptide.

[2] = target: T1, HLA-A*0201 molecule; experiment: T2 cells loaded with 100 µM peptide, Brefeldin A, flow cytometry with BB7.2 at 0-8 h
[3] = target: T1, HLA-A*0201 molecule; experiment: T2 cell HLA-A*0201 stabilisation, flow cytometry with BB7.2; remark: listed apart in the source
Method: as §1

Binder	RA (relative affinity) [1]	DC50 (time for loss of 50% of the complexes) [2] [h]	RA (relative affinity) [3]
B1	> 27 ratio to reference peptide HIVpol 589	< 2	–
YLEYRQVPD (Native peptide of MAGE-A1) [p248D9 (YLEYRQVPD)]	22.5 ratio to reference peptide HIVpol 589	< 2	–
B2	1.8 ratio to reference peptide HIVpol 589	4	–
YLFLWGPRA (Variant of p262 with leucine at P2) [p262L2 (YLFLWGPRA)]	0.2 ratio to reference peptide HIVpol 589	6	–
YLGLSYDGLL (Variant of p174 with tyrosine at P1) [p174Y1 (YLGLSYDGLL)]	13 ratio to reference peptide HIVpol 589	< 2	–
B3	41 ratio to reference peptide HIVpol 589	< 2	–
B4	2.5 ratio to reference peptide HIVpol 589	< 2	–
B5	–	–	2.03 ratio to reference peptide HIVpol 589
